Consider 94 variants from the supplement of paper PMC10567573.

To fix the notation:
B1: MLL5 (parent)
chain: TYLCERCQPRNLDKERAVLLQRRK
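Further: lentivirally expressed fusions sorted by FACS into six bins by GFP to DsRed ratio, PSI derived from sequencing read proportions per bin multiplied by bin number.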

The variants in the series derive from B1. The series is described as follows: protein stability index of a GFP-peptide fusion (GPS, HEK-293T) (PSI 1-6); higher = more stable. The conditions noted are these: c terminus: a fixed tail appended.
For the variant TVLCERCQPRNLDKERAVLLQRRK [Y2V], the protein stability index came out at 2.16.

As for TLLCERCQPRNLDKERAVLLQRRK [Y2L], the protein stability index was 2.78.

As to TGLCERCQPRNLDKERAVLLQRRK [Y2G], the protein stability index was 2.78.

With TMLCERCQPRNLDKERAVLLQRRK [Y2M], the protein stability index worked out at 2.53.

With TELCERCQPRNLDKERAVLLQRRK [Y2E], the protein stability index came to 2.4.

Take TRLCERCQPRNLDKERAVLLQRRK [Y2R]: the protein stability index worked out at 2.88.

For THLCERCQPRNLDKERAVLLQRRK [Y2H], the protein stability index was 2.58.

Consider TYLCERCPPRNLDKERAVLLQRRK [Q8P], for which the protein stability index stood at 3.38.

For TYLCERCKPRNLDKERAVLLQRRK [Q8K], the protein stability index amounted to 2.05.

Turning to TYLCERCVPRNLDKERAVLLQRRK [Q8V], the protein stability index is 1.9.

As for TYLCERCEPRNLDKERAVLLQRRK [Q8E], the protein stability index turned out to be 2.42.

In the case of TYLCERCSPRNLDKERAVLLQRRK [Q8S], the protein stability index amounted to 1.14.

Turning to TYLCERCGPRNLDKERAVLLQRRK [Q8G], the protein stability index was 2.36.

Turning to TYLCERCNPRNLDKERAVLLQRRK [Q8N], the protein stability index worked out at 1.55.

TYLCERCWPRNLDKERAVLLQRRK [Q8W]: the protein stability index amounted to 4.94.

In the case of TYLCERCFPRNLDKERAVLLQRRK [Q8F], the protein stability index is 2.29.

Consider TYLCERCAPRNLDKERAVLLQRRK [Q8A], for which the protein stability index is 2.74.

As to TYLCERCMPRNLDKERAVLLQRRK [Q8M], the protein stability index is 1.67.

On to TYLCERCIPRNLDKERAVLLQRRK [Q8I], for which the protein stability index is 1.79.

Consider TYLCERCYPRNLDKERAVLLQRRK [Q8Y], for which the protein stability index was found to be 1.5.

Turning to TYLCERCDPRNLDKERAVLLQRRK [Q8D], the protein stability index stood at 2.8.

In the case of TYLCERCCPRNLDKERAVLLQRRK [Q8C], the protein stability index is 1.38.

Regarding TYLCERCRPRNLDKERAVLLQRRK [Q8R], the protein stability index stood at 2.44.

Consider TYLCERCTPRNLDKERAVLLQRRK [Q8T], for which the protein stability index amounted to 2.72.

On to TYLCERCLPRNLDKERAVLLQRRK [Q8L], for which the protein stability index was found to be 1.93.

Turning to TYLCERCQERNLDKERAVLLQRRK [P9E], the protein stability index is 3.09.

On to TYLCERCQFRNLDKERAVLLQRRK [P9F], for which the protein stability index is 2.15.

Regarding TYLCERCQGRNLDKERAVLLQRRK [P9G], the protein stability index is 2.68.

As for TYLCERCQVRNLDKERAVLLQRRK [P9V], the protein stability index was determined as 2.36.

Take TYLCERCQLRNLDKERAVLLQRRK [P9L]: the protein stability index turned out to be 2.69.

For TYLCERCQYRNLDKERAVLLQRRK [P9Y], the protein stability index is 3.52.

With TYLCERCQQRNLDKERAVLLQRRK [P9Q], the protein stability index came out at 3.16.

For the variant TYLCERCQCRNLDKERAVLLQRRK [P9C], the protein stability index was 2.76.

Regarding TYLCERCQIRNLDKERAVLLQRRK [P9I], the protein stability index came out at 1.91.

In the case of TYLCERCQNRNLDKERAVLLQRRK [P9N], the protein stability index is 3.62.

Consider TYLCERCQMRNLDKERAVLLQRRK [P9M], for which the protein stability index is 2.08.

For TYLCERCQARNLDKERAVLLQRRK [P9A], the protein stability index is 1.86.

Consider TYLCERCQDRNLDKERAVLLQRRK [P9D], for which the protein stability index came out at 2.32.

On to TYLCERCQSRNLDKERAVLLQRRK [P9S], for which the protein stability index is 2.27.

As for TYLCERCQRRNLDKERAVLLQRRK [P9R], the protein stability index came to 2.35.

As to TYLCERCQHRNLDKERAVLLQRRK [P9H], the protein stability index was 1.97.

In the case of TYLCERCQTRNLDKERAVLLQRRK [P9T], the protein stability index was determined as 2.81.

For TYICERCQPRNLDKERAVLLQRRK [L3I], the protein stability index stood at 1.55.

Regarding TYGCERCQPRNLDKERAVLLQRRK [L3G], the protein stability index was determined as 2.85.

As to TYSCERCQPRNLDKERAVLLQRRK [L3S], the protein stability index turned out to be 2.18.

With TYACERCQPRNLDKERAVLLQRRK [L3A], the protein stability index was determined as 2.33.

In the case of TYWCERCQPRNLDKERAVLLQRRK [L3W], the protein stability index was 1.96.

Take TYTCERCQPRNLDKERAVLLQRRK [L3T]: the protein stability index came out at 1.98.

For TYFCERCQPRNLDKERAVLLQRRK [L3F], the protein stability index was determined as 1.82.

As to TYQCERCQPRNLDKERAVLLQRRK [L3Q], the protein stability index came out at 2.42.

For the variant TYHCERCQPRNLDKERAVLLQRRK [L3H], the protein stability index came to 2.44.

Turning to TYCCERCQPRNLDKERAVLLQRRK [L3C], the protein stability index stood at 1.45.

On to TYPCERCQPRNLDKERAVLLQRRK [L3P], for which the protein stability index was found to be 2.31.

For the variant TYRCERCQPRNLDKERAVLLQRRK [L3R], the protein stability index came out at 2.16.

For the variant TYKCERCQPRNLDKERAVLLQRRK [L3K], the protein stability index is 2.83.

On to TYMCERCQPRNLDKERAVLLQRRK [L3M], for which the protein stability index was 2.02.

In the case of TYYCERCQPRNLDKERAVLLQRRK [L3Y], the protein stability index was determined as 2.56.

In the case of TYVCERCQPRNLDKERAVLLQRRK [L3V], the protein stability index worked out at 2.17.

Turning to TYNCERCQPRNLDKERAVLLQRRK [L3N], the protein stability index came out at 3.55.

As to TYECERCQPRNLDKERAVLLQRRK [L3E], the protein stability index is 3.

Regarding TYDCERCQPRNLDKERAVLLQRRK [L3D], the protein stability index stood at 2.99.

For the variant TYLLERCQPRNLDKERAVLLQRRK [C4L], the protein stability index was determined as 2.71.

Turning to TYLGERCQPRNLDKERAVLLQRRK [C4G], the protein stability index worked out at 3.83.

TYLMERCQPRNLDKERAVLLQRRK [C4M]: the protein stability index stood at 3.52.

As for TYLNERCQPRNLDKERAVLLQRRK [C4N], the protein stability index was determined as 3.9.

Turning to TYLFERCQPRNLDKERAVLLQRRK [C4F], the protein stability index is 2.61.

Turning to TYLHERCQPRNLDKERAVLLQRRK [C4H], the protein stability index worked out at 3.36.

As to TYLQERCQPRNLDKERAVLLQRRK [C4Q], the protein stability index is 3.56.

TYLTERCQPRNLDKERAVLLQRRK [C4T]: the protein stability index came out at 4.07.

TYLEERCQPRNLDKERAVLLQRRK [C4E]: the protein stability index was found to be 4.31.

TYLDERCQPRNLDKERAVLLQRRK [C4D]: the protein stability index stood at 4.22.

Take TYLIERCQPRNLDKERAVLLQRRK [C4I]: the protein stability index came to 1.54.

Take TYLSERCQPRNLDKERAVLLQRRK [C4S]: the protein stability index was 3.95.

Regarding TYLAERCQPRNLDKERAVLLQRRK [C4A], the protein stability index worked out at 4.43.

With TYLVERCQPRNLDKERAVLLQRRK [C4V], the protein stability index worked out at 3.12.

For the variant TYLPERCQPRNLDKERAVLLQRRK [C4P], the protein stability index was 4.26.

Consider TYLRERCQPRNLDKERAVLLQRRK [C4R], for which the protein stability index amounted to 3.67.

As to TYLWERCQPRNLDKERAVLLQRRK [C4W], the protein stability index came out at 2.6.

With TYLKERCQPRNLDKERAVLLQRRK [C4K], the protein stability index came out at 3.15.

As for TYLCQRCQPRNLDKERAVLLQRRK [E5Q], the protein stability index was 1.76.

TYLCNRCQPRNLDKERAVLLQRRK [E5N]: the protein stability index stood at 1.94.

Turning to TYLCVRCQPRNLDKERAVLLQRRK [E5V], the protein stability index was found to be 3.05.

As to TYLCFRCQPRNLDKERAVLLQRRK [E5F], the protein stability index turned out to be 1.94.

As for TYLCGRCQPRNLDKERAVLLQRRK [E5G], the protein stability index turned out to be 2.28.

Consider TYLCWRCQPRNLDKERAVLLQRRK [E5W], for which the protein stability index came to 2.4.

Turning to TYLCIRCQPRNLDKERAVLLQRRK [E5I], the protein stability index stood at 2.47.

For TYLCARCQPRNLDKERAVLLQRRK [E5A], the protein stability index was found to be 1.91.

As for TYLCLRCQPRNLDKERAVLLQRRK [E5L], the protein stability index stood at 1.73.

Take TYLCTRCQPRNLDKERAVLLQRRK [E5T]: the protein stability index was determined as 1.61.

Turning to TYLCDRCQPRNLDKERAVLLQRRK [E5D], the protein stability index is 2.87.

Take TYLCSRCQPRNLDKERAVLLQRRK [E5S]: the protein stability index was 2.23.

Turning to TYLCKRCQPRNLDKERAVLLQRRK [E5K], the protein stability index is 1.79.

As for TYLCHRCQPRNLDKERAVLLQRRK [E5H], the protein stability index came out at 2.12.

In the case of TYLCCRCQPRNLDKERAVLLQRRK [E5C], the protein stability index was 1.63.
